{
  "source": "patent US9255257B2",
  "about": "“PmST1 mutants for chemoenzymatic synthesis of sialyl lewis X compounds” (THE REGENTS OF THE UNIVERSITY OF CALIFORNIA, priority 2011, dated 2016)",
  "molecules": {"B1": {"name": "E271F/R313Y (protein, listed as Pasteurella multocida)", "chain": "MKNRRLNFKLFFLIIFSLFSTLSWSKTITLYLDPASLPALNQLMDFTQNNEDKTHPRIFGLSRFKIPDNIITQYQNIHFVELKDNRPTEALFTILDQYPGNIELNIHLNIAHSVQLIRPILAYRFKHLDRVSIQQLNLYDDGSMEYVDLEKEENKDISAEIKQAEKQLSHYLLTGKIKFDNPTIARYVWQSAFPVKYHFLSTDYFEKAEFLQPLKEYLAENYQKMDWTAYQQLTPEQQAFYLTLVGFNDEVKQSLEVQQAKFIFTGTTTWFGNTDVREYYAQQQLNLLNHFTQAEGDLFIGDHYKIYFKGHPYGGEINDYILNNAKNITNIPANISFEVLMMTGLLPDKVGGVASSLYFSLPKEKISHIIFTSNKQVKSKEDALNNPYVKVMRRLGIIDESQVIFWDSLKQL", "modifications": "PmST1 wild-type glycosyltransferase family 80 (GT80), GT80 sialyltransferase, Pm0188Ph"}},
  "key": {"[1]": {"tested_on": "CC(=O)N[C@H]1[C@H]([C@H](O)[C@H](O)CO)O[C@@](O[C@H]2[C@@H](O)[C@@H](CO)O[C@@H](O[C@H]3[C@H](O)[C@@H](O)[C@H](Oc4ccc5c(C)cc(=O)oc5c4)O[C@@H]3CO)[C@@H]2O)(C(=O)O)C[C@@H]1O", "assay": "α2-3-sialidase activity, Neu5Acα2-3LacβMU as substrate", "type": "biochemical, Pasteurella multocida", "conditions": "other: apparent, MES pH 5.5, 37° C.", "method": "(§1) Site-directed mutagenesis, expression and purification of PmST1 mutants. Site-directed mutagenesis was performed using the QuikChange multi-site-directed mutagenesis kit from Stratagene according to the manufacturer's protocol. The primers used were 5′-[…]-3′ (SEQ ID NO:35) for M144D; 5′-[…]a[…] -3′ (SEQ ID NO:36) for M144H; 5′-[…]-3′ (SEQ ID NO:37) for A35D; and 5′-[…]-3′ (SEQ ID NO:38) for A35H. The expression and purification of the mutants were performed as previously described for the WT PmST1 .\nKinetics of the α2-3-sialidase activity of PmST1 mutants. The reactions were performed in duplicate in a total volume of 10 μL at 37° C. for 60 min (M144D) or 15 min (M144H) in MES buffer (100 mM, pH 5.5) containing Neu5Acα2-3LacβMU (0.4, 1, 2, 4, 10, 20, 40 and 60 mM) and an enzyme (M144H, 1.36 mg mL^−1 or M144D, 1.05 mg mL^−1). Sample treatment after the reaction and analysis were carried out by HPLC similar to that described above for the α2-3-sialyltransferase assays."}, "[2]": {"tested_on": "CC(=O)N[C@H]1[C@H]([C@H](O)[C@H](O)CO)O[C@](OP(=O)(O)OC[C@H]2O[C@@H](n3ccc(N)nc3=O)[C@H](O)[C@@H]2O)(C(=O)O)C[C@@H]1O", "assay": "α2-3-sialyltransferase activity, Le^xβMU as acceptor", "type": "biochemical, Pasteurella multocida", "conditions": "other: apparent, donor, Le^xβMU 1 mM, CAPSO pH 9.5, 37° C.", "method": "as §1\n(§2) Kinetics of the α2-3-sialyltransferase activity of PmST1 mutants by HPLC analysis. With LacβMU as the acceptor substrate, the reactions were performed in duplicate at 37° C. for 10 min (M144D) or 4 min (M144H) in a reaction mixture (10 μL) containing Tris-HCl (100 mM, pH 8.5), an enzyme (5 μg mL^−1), and different concentrations (0.2, 0.5, 1.0, 2.0, and 5.0 mM) of LacβMU with a fixed concentration (1 mM) of CMP-Neu5Ac or different concentrations (0.2, 0.5, 1.0, 2.0, 5.0, and 10.0 mM) of CMP-Neu5Ac with a fixed concentration (1 mM) of LacβMU. With Le^xβMU as the acceptor substrate, the reactions were carried out in duplicate at 37° C. for 9 min (M144D) or 10 min (M144H) in a reaction mixture (10 μL) containing CAPSO (100 mM, pH 9.5), an enzyme (M144D, 39 μg mL^−1 or M144H, 5 μg mL^−), and various concentrations of Le^xβMU (1.0, 5.0, 10.0, 15.0, 25.0, and 35.0 mM) with a fixed concentration (1 mM) of CMP-Neu5Ac or various concentrations (0.2, 0.5, 1.0, 2.0, 5.0, 10.0, 20.0, and 40.0 mM) of CMP-Neu5Ac with a fixed concentration (1 mM) of Le^xβMU. Reactions were stopped by adding 10 μL of pre-chilled ethanol. The mixtures were incubated on ice for 30 min and centrifuged at 13,000 rpm for 5 min. The supernatants were diluted with 25% acetonitrile and kept on ice until aliquots of 8 μL were injected and analyzed by the Shimadzu LC-6AD system equipped with a membrane on-line degasser, a temperature control unit, and a fluorescence detector (Shimadzu RF-10AXL). A reverse-phase Premier C18 column (250×4.6 mm i.d., 5 μm particle size, Shimadzu) protected with a C18 guard column cartridge was used. The mobile phase was 25% acetonitrile. The fluorophore (MU)-labeled compounds were detected by excitation at 325 nm and emission at 372 nm. The apparent kinetic parameters were obtained by fitting the experimental data (the average values of duplicate assay results) into the Michaelis-Menten equation using Grafit 5.0."}, "[3]": {"tested_on": "CC(=O)N[C@H]1[C@H](Oc2ccc3c(C)cc(=O)oc3c2)O[C@H](CO)[C@@H](O[C@@H]2O[C@H](CO)[C@H](O)[C@H](O)[C@H]2O)[C@@H]1O[C@@H]1O[C@@H](C)[C@@H](O)[C@@H](O)[C@@H]1O", "assay": "α2-3-sialyltransferase activity, Le^xβMU as acceptor", "type": "biochemical, Pasteurella multocida", "conditions": "other: apparent, acceptor, CMP-Neu5Ac 1 mM, CAPSO pH 9.5, 37° C.", "method": "as §1, §2"}, "[4]": {"tested_on": "CC(=O)N[C@H]1[C@H]([C@H](O)[C@H](O)CO)O[C@](OP(=O)(O)OC[C@H]2O[C@@H](n3ccc(N)nc3=O)[C@H](O)[C@@H]2O)(C(=O)O)C[C@@H]1O", "assay": "CMP-Neu5Ac (donor) hydrolysis activity, capillary electrophoresis", "type": "biochemical, Pasteurella multocida", "conditions": "other: apparent, Tris-HCl pH 8.5, 37° C., 15 min", "method": "as §1\nKinetics of the donor hydrolysis activity of PmST1 and mutants by capillary electrophoresis analysis. […] The reactions were stopped by adding 10 μL of pre-chilled ethanol. The mixtures were incubated on ice for 30 min and centrifuged at 13,000 rpm for 5 min. The supernatants were diluted with borate buffer (25 mM, pH 9.5) and aliquotes of 5 μL each were injected to a Beckman Coulter P/ACE™ MDQ Capillary Electrophoresis system equipped with a capillary (60 cm×75 μm i.d.) and monitored at 254 nm. The apparent kinetic parameters were obtained by fitting the experimental data (the average values of duplicate assay results) into the Michaelis-Menten equation using Grafit 5.0."}, "[5]": {"tested_on": "Cc1cc(=O)oc2cc(O[C@@H]3O[C@H](CO)[C@@H](O[C@@H]4O[C@H](CO)[C@H](O)[C@H](O)[C@H]4O)[C@H](O)[C@H]3O)ccc12", "assay": "α2-3-sialyltransferase activity, LacβMU as acceptor", "type": "biochemical, Pasteurella multocida", "conditions": "other: apparent, acceptor, CMP-Neu5Ac 1 mM, Tris-HCl pH 8.5, 37° C.", "method": "as §1, §2"}, "[6]": {"tested_on": "CC(=O)N[C@H]1[C@H]([C@H](O)[C@H](O)CO)O[C@](OP(=O)(O)OC[C@H]2O[C@@H](n3ccc(N)nc3=O)[C@H](O)[C@@H]2O)(C(=O)O)C[C@@H]1O", "assay": "α2-3-sialyltransferase activity, LacβMU as acceptor", "type": "biochemical, Pasteurella multocida", "conditions": "other: apparent, donor, LacβMU 1 mM, Tris-HCl pH 8.5, 37° C.", "method": "as §1, §2"}, "[7]": {"tested_on": "CC(=O)N[C@H]1[C@H]([C@H](O)[C@H](O)CO)O[C@](OP(=O)(O)OC[C@H]2O[C@@H](n3ccc(N)nc3=O)[C@H](O)[C@@H]2O)(C(=O)O)C[C@@H]1O", "assay": "purified protein, by the assay type", "conditions": "other: apparent, WT"}, "[8]": {"tested_on": "CC(=O)N[C@H]1[C@H](Oc2ccc3c(C)cc(=O)oc3c2)O[C@H](CO)[C@@H](O[C@@H]2O[C@H](CO)[C@H](O)[C@H](O)[C@H]2O)[C@@H]1O[C@@H]1O[C@@H](C)[C@@H](O)[C@@H](O)[C@@H]1O", "assay": "purified protein, by the assay type", "conditions": "other: apparent; acceptor; WT; 37.0 °C"}, "[9]": {"assay": "Thermal stability studies by HPLC", "type": "physicochemical", "conditions": "incubating at 37° C. for up to 2 hours", "method": "Stability studies by HPLC. Thermal stability studies were carried out by incubating wild-type PmST1 or E271F/R313Y mutant solution (20 μg mL^−1) at 37° C. Samples were withdrawn at various time intervals for enzyme activity assays."}, "[10]": {"assay": "Apparent kinetics of the α2-3-sialidase activity (HPLC, fluorescent sialoside substrate)", "type": "biochemical", "conditions": "substrate Neu5Acα2-3LacβMU", "method": "All the sialidase and α2-3-sialyltransferase assays were performed in an HPLC system. Reactions were stopped by adding 10 μL of ethanol. […] The mobile phase was 25% acetonitrile.\nKinetics of the α2-3-sialidase activity of PmST1 mutants."}, "[11]": {"conditions": "donor hydrolysis, Tris-HCl pH 8.5, 37° C., 15 min"}},
  "data": [
    {"molecule": "Pasteurella multocida PmST1 mutant M144D of SEQ ID NO: 13 (M120D of Δ24PmST1, SEQ ID NO: 3) (Pasteurella multocida; M144D)", "values": [
      {"measurement": "Km", "setting": "[1]; M144D, 60 min", "result": "20000 ± 2000", "unit": "µM"},
      {"measurement": "Km", "setting": "[2]; M144D", "result": "2100 ± 100", "unit": "µM"},
      {"measurement": "Km", "setting": "[3]; M144D", "result": "13000 ± 2000", "unit": "µM"},
      {"measurement": "Km", "setting": "[4]; M144D", "result": "7300 ± 500", "unit": "µM"},
      {"measurement": "Km", "setting": "[5]; M144D", "result": "12000 ± 1000", "unit": "µM"},
      {"measurement": "Km", "setting": "[6]; M144D", "result": "300 ± 50", "unit": "µM"}
    ]},
    {"molecule": "Pasteurella multocida PmST1 mutant M144H of SEQ ID NO: 13 (M120H of Δ24PmST1, SEQ ID NO: 5) (Pasteurella multocida; M144H)", "values": [
      {"measurement": "Km", "setting": "[1]; M144H, 15 min", "result": "1700 ± 300", "unit": "µM"},
      {"measurement": "Km", "setting": "[2]; M144H", "result": "400 ± 50", "unit": "µM"},
      {"measurement": "Km", "setting": "[3]; M144H", "result": "8100 ± 900", "unit": "µM"},
      {"measurement": "Km", "setting": "[4]; M144H", "result": "13000 ± 3000", "unit": "µM"},
      {"measurement": "Km", "setting": "[5]; M144H", "result": "790 ± 40", "unit": "µM"},
      {"measurement": "Km", "setting": "[6]; M144H", "result": "810 ± 60", "unit": "µM"}
    ]},
    {"molecule": "Pasteurella multocida α2-3-sialyltransferase 1 (PmST1), wild type (WT), SEQ ID NO: 13 (Pasteurella multocida)", "values": [
      {"measurement": "Km", "setting": "[7]; [11]", "result": "1500 ± 200", "unit": "µM"},
      {"measurement": "kcat", "setting": "[7]; [11]", "result": "27 ± 1", "unit": "s⁻¹"},
      {"measurement": "kcat/Km", "setting": "[7]; [11]", "result": 18000, "unit": "M⁻¹ s⁻¹"},
      {"measurement": "Km", "setting": "[7]; donor, with Le^xβMU, 37.0 °C", "result": "390 ± 30", "unit": "µM"},
      {"measurement": "kcat", "setting": "[7]; donor, with Le^xβMU, 37.0 °C", "result": "0.55 ± 0.01", "unit": "s⁻¹"},
      {"measurement": "Km", "setting": "[8]", "result": "17000 ± 2000", "unit": "µM"},
      {"measurement": "kcat", "setting": "[8]", "result": "6.7 ± 0.3", "unit": "s⁻¹"}
    ]},
    {"molecule": "B1", "values": [
      {"measurement": "thermal stability of α2-3-sialyltransferase activity (FIG. 3, in words)", "setting": "[9]", "result": "did not decrease their activities significantly"},
      {"measurement": "decrease in sialidase kcat (turnover number) compared to wild-type PmST1", "setting": "[10]", "result": 277, "unit": "fold"},
      {"measurement": "decrease of α2-3-sialidase activity (catalytic efficiency kcat/Km) compared to wild-type PmST1", "setting": "[10]", "result": "6,333 fold"},
      {"measurement": "increase in sialidase Km value compared to wild-type PmST1", "setting": "[10]", "result": 22.5, "unit": "fold"}
    ]}
  ]
}
